Source: PMC8419929

Tests used:
[1] = molecular target: rat lutropin/chorionic gonadotropin receptor (rLH/CGR) (rat) (UniProt P16235)
[2] = molecular target: rat follicle-stimulating hormone receptor (rFSHR) (rat) (UniProt P20395)
UniProt P20395, sequence (P20395 18-692): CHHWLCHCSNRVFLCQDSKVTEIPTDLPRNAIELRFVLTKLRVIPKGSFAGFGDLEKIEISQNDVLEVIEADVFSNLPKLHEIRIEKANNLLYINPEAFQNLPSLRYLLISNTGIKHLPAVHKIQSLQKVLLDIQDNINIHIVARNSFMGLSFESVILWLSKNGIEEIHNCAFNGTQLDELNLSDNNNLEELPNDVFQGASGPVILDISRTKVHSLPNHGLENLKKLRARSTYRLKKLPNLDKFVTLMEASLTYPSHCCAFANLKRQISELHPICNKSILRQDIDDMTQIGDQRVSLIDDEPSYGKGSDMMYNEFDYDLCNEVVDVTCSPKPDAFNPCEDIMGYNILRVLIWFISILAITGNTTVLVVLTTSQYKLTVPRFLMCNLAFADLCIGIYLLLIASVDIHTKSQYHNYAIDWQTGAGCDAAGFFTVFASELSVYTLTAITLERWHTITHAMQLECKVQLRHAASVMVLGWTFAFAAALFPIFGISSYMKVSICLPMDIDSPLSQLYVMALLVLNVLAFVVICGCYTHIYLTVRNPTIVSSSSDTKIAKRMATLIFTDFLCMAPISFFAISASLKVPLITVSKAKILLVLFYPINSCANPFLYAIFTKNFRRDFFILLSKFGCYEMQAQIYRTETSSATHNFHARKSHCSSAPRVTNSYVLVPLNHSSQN

UniProt P16235, sequence (P16235 27-700): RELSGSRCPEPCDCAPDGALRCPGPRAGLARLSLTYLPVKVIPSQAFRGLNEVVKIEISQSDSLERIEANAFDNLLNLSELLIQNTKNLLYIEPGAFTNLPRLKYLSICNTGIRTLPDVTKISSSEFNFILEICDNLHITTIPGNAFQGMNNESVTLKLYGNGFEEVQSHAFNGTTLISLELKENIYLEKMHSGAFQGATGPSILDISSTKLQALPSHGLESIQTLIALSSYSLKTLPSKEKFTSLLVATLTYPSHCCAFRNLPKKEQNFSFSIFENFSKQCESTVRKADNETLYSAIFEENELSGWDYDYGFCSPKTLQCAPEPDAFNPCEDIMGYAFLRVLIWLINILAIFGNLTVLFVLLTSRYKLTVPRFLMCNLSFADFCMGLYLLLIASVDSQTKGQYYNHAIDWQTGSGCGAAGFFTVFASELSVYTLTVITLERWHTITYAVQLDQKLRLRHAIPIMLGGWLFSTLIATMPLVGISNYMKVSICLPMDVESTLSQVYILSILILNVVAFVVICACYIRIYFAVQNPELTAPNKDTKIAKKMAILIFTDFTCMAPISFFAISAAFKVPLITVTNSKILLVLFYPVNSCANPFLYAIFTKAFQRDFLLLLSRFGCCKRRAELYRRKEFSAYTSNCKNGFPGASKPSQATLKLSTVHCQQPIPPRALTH

Substance | EC50 of cAMP production (HTRF cAMP immunoassay) in CHO-K1 cells transiently expressing rLH/CGR, 30 min at room temperature, mock-transfected cells subtracted [1] | EC50 of cAMP production (HTRF cAMP immunoassay) in CHO-K1 cells transiently expressing rFSHR, 30 min at room temperature, mock-transfected cells subtracted [2]
rec-eCGβ-D/α (single-chain eCG, CTP region of the β-subunit deleted) (ligand) | 0.0245 µg/mL | 0.0631 µg/mL
rec-eCGβ/αΔ56 (single-chain eCG, Asn56 of the α-subunit replaced with Gln) (from UniProt P08751 21-169) (ligand) | 0.0176 µg/mL | 0.112 µg/mL
recombinant single-chain equine chorionic gonadotropin, rec-eCGβ/α-wt (from UniProt P08751 21-169) (ligand) | 0.0046 µg/mL | 0.0271 µg/mL
rec-eCGβ-D/αΔ56 (single-chain eCG double mutant: CTP of the β-subunit deleted and Asn56 of the α-subunit replaced with Gln) (ligand) | 0.334 µg/mL | 0.0949 µg/mL
